From the nanobody polyreactivity screen of Harvey et al. (2022)

Assay: yeast display, Sf9 membrane polyspecificity reagent, FACS + sequencing; frameworks hold sequencing errors
Summary of the method: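 Nanobodies from a synthetic yeast display library (Saccharomyces cerevisiae BJ5465), induced 36–48 hours with galactose, were stained 1 hour at 4 °C with 10% biotinylated, detergent-solubilized Sf9 membrane reagent, enriched on streptavidin microbeads, then FACS-sorted. Anti-HA (expression) and streptavidin (reagent binding) fluorescence set low and high (top ~1%) gates. Polyreactivity labels come from the gate of origin. Genes were colony-PCR amplified, MiSeq 2 × 250 sequenced and filtered by CDR length.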

## QVQLVESGGGLVQAGGSLSLSCAASGSTFSVYAMGWYRQAPGKERELVAAITRSGGSTYYADSVKGRFTISRDNAKNTVYLQMNSLIAEDSAVYYCNAEWYYVWFITTYWLDQYGYWGQGTQVTVSS
  polyreactivity (PSR sort gate): low polyreactivity

## QVQLVESGGGLVQAGGSLRLSCAASGRTFYANDMGWYRQAPGKERELVARITSGGSTYYADSVKGRFTISRDNAKNTVYLQMNSLKPEDTAVYYCAAVTRRFSYRYNYWGQGTQVTVSS
  polyreactivity (PSR sort gate): high polyreactivity

## QVQLVESGGGLVQAGGSLRLSCAASGSILGYYGMGWYRHAPGKERELVAAISSSCNTNYADSVKGRFTISRDNAKNTVYLQMMSLKPEDTAVYYCAASFQYVAYYLYDYWGQGTQVTVSS
  polyreactivity (PSR sort gate): low polyreactivity

## QVQLVASGGGLVHAGGSLRLSCAASGRIFTHNAMGWSRQAPGKEREMVAAITSGGRTTYADSVKGRFTISRDNAKNTVYFQMNSLKPEDTAVYYCNADTGLGSLDFDKRDYWGQGTQVTVSS
  polyreactivity (PSR sort gate): low polyreactivity

## QVQLVESGGGLVQAGGSLRLSCAASGSIFWWYGMGWDRQAPGKERELVADITSGGGTYYADSVKGRFTISRDNAKNTVYLQLNSLKPEDTAVYYCAADVRAYRFDYYFDYWGQGTQVTVSS
  polyreactivity (PSR sort gate): low polyreactivity

## QVQLGESGGGLFQAGGSLRLSCAASGRTFVTYAMVWYRQAPGKERELVAAISKRGSRTYYADSVKGRFTISRDNAKNTVYLQMNTLKPEDTAVYYCAVVYSIYTRGYDYWGQGTQVTVSS
  polyreactivity (PSR sort gate): high polyreactivity

## QVQLVESGGGLVQAGGSLRLSCAASGRTFLHNAMGWYRQAPGKERELVAAISSRGGSTYYADSVKGRFTISRDNAKNTVYLQMNSLKPEDTAVYYCAAYIYGTYYYWGQGTQVTVSS
  polyreactivity (PSR sort gate): high polyreactivity

## HVQLVESGVGLVQAGGSLRLSCEASGFIFIRYAMGWYRQAPGQERELVASISSGGSTYYADSVKGRFTISRDNAKNTVYFQMNSLKPEDTAVFYCAAVFSKGLEGDYWGQGTEVTVSS
  polyreactivity (PSR sort gate): high polyreactivity

## QVQLVESGGGLVQAGGSLRLSCAASGRTFKYYTMGWYRQAPGKERELVAAITSDGSTNYADSVKGRFTISRDNAKNTVYLQMNSLKPEDTAVYYCAAEIRWVFLSYEYWGQGTQVTVSS
  polyreactivity (PSR sort gate): high polyreactivity

## QVQLVESGGGLVQAGGSLRLSCAASGRILSYYAMGWYRQAPGKERELVAAITRGGSTYYADSVKGRFTISRDNAKNTVYLQMNSLKPEDTAVYYCAARKKTTYRDWGRHDYWGQGTQVTVSS
  polyreactivity (PSR sort gate): high polyreactivity

## QVQLVESWGGLVQAGGSLRLSCAASGFNPNAMGWYRQAPGKERELVAAISSNGGSTYYADSVKGRFTISRDNAKKTVYLQMNSLKPEDTAVYYCNRDQWRHTPAEGYYWGQGTQVTVSS
  polyreactivity (PSR sort gate): low polyreactivity

## QVQLVESGGGLVQAGGSLRLSCAASGRIFYFYAMGWYRQAPGKERELVASISSGSSTNYADSVKGRFTISRDNAKNTVYLQMNSLKPEDTAVYYCAAQPWHGSRPRSYYWGQGTQVTVSS
  polyreactivity (PSR sort gate): high polyreactivity

## QVQLVVSGGGLVQAGGSLRLSCAASGRTFYRYAMGWYRQAPGKEWELVAAISASGGITYYADSVKGRFTISRDNAKNTVYLQMNSLKPEDTAVYYCKAVWRKTEYDYWGQGTQVTVSS
  polyreactivity (PSR sort gate): high polyreactivity

## QVQLVESGGGLVQAGGSLRLSCAASGSTFHPYAMGWYIQAPGKERELVAAITWRVGSTYYADSVKGRFTISRDNAKNTVYLQMNSLKPEDTAVFYCAVSYLSSLGRSRYDYWGQGTQVTVSS
  polyreactivity (PSR sort gate): low polyreactivity

## QVQLVESGGGLVQAGGSLRLSCAASGFIFAHNAMGWYRQAPGKERELVADITRDGNTYYADSVKGRFTISRDNAKNTVYLQMNSLKTEDTAVYYCAADVSTTWYWWGQFEFEYWGQGTQVTVSS
  polyreactivity (PSR sort gate): high polyreactivity

## QVQLVDSGGGLVQAGGSLRLSCAASGSTFSRYAMGWYRQARGKERELVAAITDGGDSTYYADSVKGRFTISRDNAKNTVYLQMNSLKPEDTAGYYCNADRLQYGRTPHYDYWGQGTQVTVSS
  polyreactivity (PSR sort gate): low polyreactivity

## QVQLVESGGGLVQAGGSLRLSCAASGLTFTQYAMGWYRQAPGKERELVAAITSGGRTYYADSVKGRFTISRDNAKNTVYLQMNSLKPEDTAVYYCAADRRYVDAYHFGYWGQGTQVTVSS
  polyreactivity (PSR sort gate): high polyreactivity

## QVQLVESGGGLVQAGGSLRLSCAASGLTFTTYAMGWYIPAPGKDRELVSAINYRGTSSYYADSVKGRFTISRDNAKKTVYLQINSLKPEDTAVYYCNARQTRSSRINYAEGIYNFWGQGTQVTVSS
  polyreactivity (PSR sort gate): high polyreactivity

## QVQLVESGGGLVQAGGSLRLSCAASGFTFSIYAMGWYRHAPGKERELVAAINWSGGSTYYADSVKGRFTISRDNAKNTVYLQMNSLKPEDTAVSYCATEATYGGGPGYEYWGQGTQVTVSS
  polyreactivity (PSR sort gate): low polyreactivity

## QVQIVESGGGLVQAGGSLRLSCAASGSIFSVYAMGWYRQAPGKERELVAAIRYGDTSTYYADSVKGRFTISRDNAKNTVYFQMNSLKPEDTAVYYCAADLYAYEREYWGQGTQVTVSS
  polyreactivity (PSR sort gate): low polyreactivity

## QVQLVESGGGLVQAGGSLRLSCAASGSIFAYNAMGWYIQAPGKERELVATITVRGGSTYYADSVKGRFTISRDNAKNTFYLQMNSLKPEDTAVYFCAVRTYRYYRYNYWGQGTQVTVSS
  polyreactivity (PSR sort gate): high polyreactivity

## QVQLVESGGGLVQAGGSLRLSCAASGFIFQYYAMGWYRQAPGKERELVAAITPSGTSTYYADSVKGRFTISRDNAKNTVYLQMNSLKPEDTAVYYCAAYYRYASDYWGQGTQVTVSS
  polyreactivity (PSR sort gate): low polyreactivity

## QDQLVESGGGLVQAGGSLRLSCAASGRTLYLYAMGWYRQAPGKERELVAGISWSGTSTYYADSVKGRFTISRYNAKNTVYLQMNSLKPEDTAVYYCAADSYPAYLGFVGFDYWGQGTQVTVSS
  polyreactivity (PSR sort gate): low polyreactivity

## QVQLVESGGGLVQAGGSLRLSCAASGSTFGYYTMGWYRQAPGKERELVAALTWSGGSTYYADSVKGRFTISRDNAKNTVYLQMNSLKPEDTAVYYCAADDYWTPFGYWGQGSQVTVSS
  polyreactivity (PSR sort gate): low polyreactivity

## QVQLVESGGGLVQAGGSLRLSCAASGSTIDYYAMGWYRQAPGKERELVAAISWSGGSTYYADSVKGRFTISRDNAKNTVYLQMYSLKTEDTAVYYCAAYSAFYTGSYNGWSDYDYWGQGTQVTVSS
  polyreactivity (PSR sort gate): low polyreactivity

## QVQLVESGGGLVQAGGSLRLICAASGYTFALYAIGWYRQATGKERELVAAITDSDGSTYADSVKGRFTISRDNAKNTFYLQMNSLKQEDTAVYYCAARDPHLQGYSYLSYLTMDYWGQGTQVTVSS
  polyreactivity (PSR sort gate): low polyreactivity

## QVQLVESGGGLVQAGGSLRLSCAASGRILDYNAMGWYRQAPGKERELVADISGSGDSTYYADSVKGRFTISRDNAKNTVYLQMNSLKPEDTAVYYCAASGAWDWWLGPYDDYYWGQGTQVTVSS
  polyreactivity (PSR sort gate): low polyreactivity

## QVQLVESGGGLVQAGGSLRLSCAASGSIFYYYAMGWYRQAPGKERELVAAISDDAITYYADSVKGRFTISRDNAKNTVYLQMNSLKPEDTAVYYCAAELYYPVGFDYWGQGTQVTVSS
  polyreactivity (PSR sort gate): high polyreactivity

## QVQLVESGGGLVQAGGSLRLSCAASGLTFWAYAMGWYRQAPGKEREFVAAISWSGDSTYYADSVKGRFTISRDNAKNTVYLQMNSLKPEDTAVYYCAAEWYYVYIAPYDYWGQGTQVTVSS
  polyreactivity (PSR sort gate): low polyreactivity

## QVQLVESGGGLVQAGVSLRLSCAASGRLFYRYAMGWYRQAPGKERELVAGISRGGSTNYADSVKGRFTISRDNAKNTVYLLMKSLKPEDSAVYYCAADAKRTLSYEFGYWGQGTQVTVSS
  polyreactivity (PSR sort gate): high polyreactivity

## QVQLVESGGGLVQAGGSLRLICAASGRTFGYNAMGWYRQAPGKEREFVAAISWSGGRTYYADSVKGRFTISRDNAKNTVYLQMNSLKPEHSAVYYCAAGFGDGPGNGYYTRYSWDDDYWGQGTQVTVSS
  polyreactivity (PSR sort gate): low polyreactivity
